# In patent US20230348603A1 (VERSEAU THERAPEUTICS, published 2023):
# T1: Cynomolgus Monkey VSIG4-L-His (cynomolgus monkey)
# T1 construct: ECD with His tag; also called cyVSIG4-L; cyno VSIG4-L-His
# T1 chain: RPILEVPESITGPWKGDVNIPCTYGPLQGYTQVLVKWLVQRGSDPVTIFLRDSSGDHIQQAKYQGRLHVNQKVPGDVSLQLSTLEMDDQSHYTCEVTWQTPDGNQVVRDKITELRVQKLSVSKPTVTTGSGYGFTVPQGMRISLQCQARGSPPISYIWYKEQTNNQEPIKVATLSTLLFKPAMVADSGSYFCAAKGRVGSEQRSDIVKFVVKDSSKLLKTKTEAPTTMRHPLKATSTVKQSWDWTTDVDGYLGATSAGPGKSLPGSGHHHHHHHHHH
# T2: Human VSIG4-L-His (human, UniProt Q9Y279 20-283)
# T2 construct: long isoform ECD with His tag; also called hVSIG4-L
# T2 sequence: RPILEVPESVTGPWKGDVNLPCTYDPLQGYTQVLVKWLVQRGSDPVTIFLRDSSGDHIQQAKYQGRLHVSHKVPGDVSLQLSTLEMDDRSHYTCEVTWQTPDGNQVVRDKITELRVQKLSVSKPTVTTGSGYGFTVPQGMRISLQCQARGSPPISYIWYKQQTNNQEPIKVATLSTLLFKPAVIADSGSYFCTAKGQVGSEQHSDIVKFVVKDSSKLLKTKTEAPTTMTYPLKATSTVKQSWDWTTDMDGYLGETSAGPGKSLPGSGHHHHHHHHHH
# T3: Human VSIG4-L-CHO (human VSIG4 long isoform on CHO-K1 cells) (human, UniProt Q9Y279 20-399)
# T3 construct: also called hVSIG4-L (flow cytometry)
# T3 sequence: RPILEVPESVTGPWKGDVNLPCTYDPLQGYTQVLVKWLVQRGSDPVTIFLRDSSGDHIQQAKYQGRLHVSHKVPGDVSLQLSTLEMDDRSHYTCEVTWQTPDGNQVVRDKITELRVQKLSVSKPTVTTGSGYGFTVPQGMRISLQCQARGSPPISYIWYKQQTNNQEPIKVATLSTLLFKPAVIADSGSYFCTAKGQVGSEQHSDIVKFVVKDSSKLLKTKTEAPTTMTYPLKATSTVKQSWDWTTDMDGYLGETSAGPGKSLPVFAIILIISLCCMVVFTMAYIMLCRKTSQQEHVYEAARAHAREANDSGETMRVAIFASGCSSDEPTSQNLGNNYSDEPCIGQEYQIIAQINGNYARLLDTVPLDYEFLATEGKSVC
# T4: Human VSIG4-S-His (human, UniProt Q9Y279 20-283)
# T4 construct: short isoform ECD with His tag; also called hVSIG4-S; VISG4-S-His
# T4 sequence: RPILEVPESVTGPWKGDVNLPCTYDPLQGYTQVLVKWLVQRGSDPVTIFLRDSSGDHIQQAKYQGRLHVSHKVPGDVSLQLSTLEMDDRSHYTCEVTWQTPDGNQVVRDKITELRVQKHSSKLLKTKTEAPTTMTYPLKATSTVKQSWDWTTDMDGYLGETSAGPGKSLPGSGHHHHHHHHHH
# T5: Mouse VSIG4-His (mouse)
# T5 construct: ECD with His tag; also called mVSIG4
# T5 chain: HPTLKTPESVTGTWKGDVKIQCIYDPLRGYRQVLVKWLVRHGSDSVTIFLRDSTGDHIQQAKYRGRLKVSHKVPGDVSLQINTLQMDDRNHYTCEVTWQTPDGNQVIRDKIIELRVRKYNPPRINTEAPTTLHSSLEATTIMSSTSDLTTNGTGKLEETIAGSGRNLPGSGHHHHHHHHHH
# Experiments:
# [1] = molecular target: T6, Human VSIG4-L-Fc (human); assay: ligand competition ELISA (FJB), blocked ligand C3b
# T6 construct: also called hVSIG4-L-Fc; hVSIG4-L
# T6 sequence (chain, as listed by the source limits assumed): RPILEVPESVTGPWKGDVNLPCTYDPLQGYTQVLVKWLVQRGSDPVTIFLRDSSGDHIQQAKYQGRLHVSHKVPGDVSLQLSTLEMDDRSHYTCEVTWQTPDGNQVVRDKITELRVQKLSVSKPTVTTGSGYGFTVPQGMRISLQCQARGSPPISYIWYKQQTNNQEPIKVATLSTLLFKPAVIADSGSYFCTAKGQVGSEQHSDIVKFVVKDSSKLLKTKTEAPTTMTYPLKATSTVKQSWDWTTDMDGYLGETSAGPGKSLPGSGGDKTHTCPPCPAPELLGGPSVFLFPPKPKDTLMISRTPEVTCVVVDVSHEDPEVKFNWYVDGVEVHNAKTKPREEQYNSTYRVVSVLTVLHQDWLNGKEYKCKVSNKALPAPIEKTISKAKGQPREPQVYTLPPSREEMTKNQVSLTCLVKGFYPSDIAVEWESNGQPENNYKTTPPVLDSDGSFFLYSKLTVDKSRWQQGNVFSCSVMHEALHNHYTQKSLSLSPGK
# [2] = molecular target: T6, Human VSIG4-L-Fc; assay: ligand blocking of C3b, IgG
# [3] = molecular target: T1, Cynomolgus Monkey VSIG4-L-His; assay: SPR (FJB)
# [4] = molecular target: T2, Human VSIG4-L-His; assay: SPR (FJB)
# [5] = molecular target: T3, Human VSIG4-L-CHO (human VSIG4 long …); assay: flow cytometry (FJB), 200 nM mAb, huVSIG4-L CHO-K1 cells
# [6] = molecular target: T6, Human VSIG4-L-Fc; assay: BLI binning on hVSIG4-L-Fc, competitor 12A08 first;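 note: normalized to binding of second antibody without first competitor antibody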
# [7] = molecular target: T6, Human VSIG4-L-Fc; assay: BLI binning on hVSIG4-L-Fc, competitor 13H11 first;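 note: normalized to binding of second antibody without first competitor antibody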
# Method: (§1) Epitopic diversity of functional antibodies was further assessed by antibody cross-blocking experiments, performed on a ForteBio Octet® Red384 system. […] All assay steps occurred at 30° C. with an acquisition rate of 5.0 Hz.
# (§2) Binning results were calculated using ForteBio Data Analysis HT software. Antibody “a” and antibody “b” steps were defined, and the maximum binding calculation was averaged at the last 10% of the step duration. Once the matrix was generated, the antibody “b” binding signal in the absence of any antibody “a” was used to normalize the maximum binding of the competitor antibodies. Hierarchical clustering was set with a similarity metric of Pearson and Lingang Criteria by Mean, and the normalized maximum binding nm shift is reported in Table 9 below.
# [8] = molecular target: T3, Human VSIG4-L-CHO (human VSIG4 long …); assay: flow cytometry, CHO-K1 cells expressing hVSIG4-L
# [9] = molecular target: T6, Human VSIG4-L-Fc; assay: BLI binning on hVSIG4-L-Fc, competitor 16E03 first;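 note: normalized to binding of second antibody without first competitor antibody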
# Method: as §1, §2
# [10] = molecular target: T6, Human VSIG4-L-Fc; assay: BLI binning on hVSIG4-L-Fc, competitor 15C04 first;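 note: normalized to binding of second antibody without first competitor antibody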
# Method: as §1, §2
# [11] = molecular target: T6, Human VSIG4-L-Fc; assay: ligand blocking of iC3b, IgG
# [12] = molecular target: T1, Cynomolgus Monkey VSIG4-L-His; assay: BLI, IgG on AHC sensor, antigen 100 nM
# [13] = molecular target: T2, Human VSIG4-L-His; assay: BLI, IgG on AHC sensor, antigen 100 nM
# [14] = molecular target: T6, Human VSIG4-L-Fc; assay: BLI binning on hVSIG4-L-Fc, competitor 15C03 first;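 note: normalized to binding of second antibody without first competitor antibody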
# [15] = molecular target: T6, Human VSIG4-L-Fc; assay: ligand competition ELISA (FJB), blocked ligand iC3b
# [16] = molecular target: T6, Human VSIG4-L-Fc; assay: BLI binning on hVSIG4-L-Fc, competitor 14C05 first;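 note: normalized to binding of second antibody without first competitor antibody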
# [17] = molecular target: T3, Human VSIG4-L-CHO (human VSIG4 long …); assay: flow cytometry (FJB), 200 nM mAb, huVSIG4-L CHO-K1 over parental CHO-K1
# [18] = molecular target: T6, Human VSIG4-L-Fc; assay: BLI binning on hVSIG4-L-Fc, competitor 16E10 first;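 note: normalized to binding of second antibody without first competitor antibody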
# Method: as §1, §2
# [19] = molecular target: T4, Human VSIG4-S-His; assay: BLI (Octet), IgG on AHC sensor, antigen 100 nM
# Method: (§3) The binding affinity of chimeric antibodies was determined by biolayer interferometry (BLI), using a ForteBio Octet® Red384 system. […] Biosensors were rehydrated prior to the assay in kinetics buffer for 10 minutes and then equilibrated in kinetics buffer for 60 seconds. Antibody was then immobilized for 300 seconds followed by a 120 second baseline wash in fresh kinetics buffer, 300 second analyte association, and 300 second dissociation in the same buffer wells as the baseline wash step. All assay steps occurred at 30° C. with an acquisition rate of 5.0 Hz
# (§4) Processing parameters included double reference subtraction, with human IgG4 used as an isotype control for reference sensor subtraction and immobilized ligand in kinetics buffer with no analyte used for reference sample subtraction. Y-axis data was aligned to the average baseline step for the last 5 seconds and all steps were inter-step corrected to the start of the dissociation step. High frequency noise was removed using Savitzky-Golay filtering and final fitting was a 1:1 global binding model to both association and dissociation.
# [20] = molecular target: T1, Cynomolgus Monkey VSIG4-L-His; assay: BLI (Octet), IgG on AHC sensor, antigen 100 nM
# Method: as §3, §4
# [21] = molecular target: T2, Human VSIG4-L-His; assay: BLI (Octet), IgG on AHC sensor, antigen 100 nM
# Method: as §3, §4
# [22] = molecular target: T6, Human VSIG4-L-Fc; assay: BLI binning on hVSIG4-L-Fc, competitor 15A06 first;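 note: normalized to binding of second antibody without first competitor antibody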
# [23] = molecular target: T6, Human VSIG4-L-Fc; assay: BLI binning on hVSIG4-L-Fc, competitor 14D12 first;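 note: normalized to binding of second antibody without first competitor antibody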
# [24] = molecular target: T6, Human VSIG4-L-Fc; assay: BLI binning on hVSIG4-L-Fc, competitor 12A12 first;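 note: normalized to binding of second antibody without first competitor antibody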
# Method: as §1, §2
# [25] = molecular target: T7, Human VSIG4-S-Fc (human); assay: ELISA, IgG 50 nM on coated antigen;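 note: Mouse-human chimeric IgG4 antibodies incubated 1 h on plate-coated VSIG4 proteins, bound IgG detected with HRP-labelled anti-human IgG, irrelevant antibody and protein as specificity controls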
# T7 construct: short isoform ECD fused to human Fc1; also called hVSIG4-S
# Target sequence in this assay (chain, as listed by the source limits assumed): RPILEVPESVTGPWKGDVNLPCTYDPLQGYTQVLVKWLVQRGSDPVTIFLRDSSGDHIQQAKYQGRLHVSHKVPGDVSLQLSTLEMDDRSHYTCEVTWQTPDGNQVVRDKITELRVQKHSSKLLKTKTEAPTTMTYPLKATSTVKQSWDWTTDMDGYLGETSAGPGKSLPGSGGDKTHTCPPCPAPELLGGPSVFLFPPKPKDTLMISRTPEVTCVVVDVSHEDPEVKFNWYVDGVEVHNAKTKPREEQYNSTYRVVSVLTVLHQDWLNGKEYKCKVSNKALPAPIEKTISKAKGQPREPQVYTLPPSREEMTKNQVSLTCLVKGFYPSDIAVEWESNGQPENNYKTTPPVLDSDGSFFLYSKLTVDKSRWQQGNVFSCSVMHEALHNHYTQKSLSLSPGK
# [26] = molecular target: T5, Mouse VSIG4-His; assay: ELISA, IgG 50 nM on coated antigen;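 note: Mouse-human chimeric IgG4 antibodies incubated 1 h on plate-coated VSIG4 proteins, bound IgG detected with HRP-labelled anti-human IgG, irrelevant antibody and protein as specificity controls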
# [27] = molecular target: T1, Cynomolgus Monkey VSIG4-L-His; assay: ELISA, IgG 50 nM on coated antigen;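 note: Mouse-human chimeric IgG4 antibodies incubated 1 h on plate-coated VSIG4 proteins, bound IgG detected with HRP-labelled anti-human IgG, irrelevant antibody and protein as specificity controls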
# [28] = molecular target: T6, Human VSIG4-L-Fc; assay: ELISA, IgG 50 nM on coated antigen;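 note: Mouse-human chimeric IgG4 antibodies incubated 1 h on plate-coated VSIG4 proteins, bound IgG detected with HRP-labelled anti-human IgG, irrelevant antibody and protein as specificity controls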
# [29] = molecular target: T6, Human VSIG4-L-Fc; assay: blocking ELISA, biotin-C3b on coated hVSIG4-L-Fc
# Method: (§5) Coated microplates were blocked with casein (Sigma-Aldrich, St. Louis, MO) at 1% in PBS. […] One hundred ill of the mixed sample was added onto the coated wells and incubated for one hour at room temperature. […] OD at 450 nm was determined using a standard absorbance microplate reader.
# [30] = molecular target: T7, Human VSIG4-S-Fc; assay: ELISA, Fab P.E. 1:5 on coated antigen;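 note: mouse Fab P.E. samples in 1% skimmed milk PBS, bound to antigen-coated wells for 1 h at room temperature, read as absorbance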
# Method: (§6) Coated microplates were blocked with dried skimmed milk at 4% in PBS. P.E. samples of the mouse unique Fab sequences were diluted 1:5 in assay buffer (1% dried skimmed milk in PBS), and 100 μl of diluted sample was added onto the coated wells and incubated for one hour at room temperature. […] Optical density (OD) at 450 nm was determined using a standard absorbance microplate reader.
# [31] = molecular target: T1, Cynomolgus Monkey VSIG4-L-His; assay: ELISA, Fab P.E. 1:5 on coated antigen;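 note: mouse Fab P.E. samples in 1% skimmed milk PBS, bound to antigen-coated wells for 1 h at room temperature, read as absorbance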
# Method: as §6
# [32] = molecular target: T6, Human VSIG4-L-Fc; assay: ELISA, Fab P.E. 1:5 on coated antigen;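 note: mouse Fab P.E. samples in 1% skimmed milk PBS, bound to antigen-coated wells for 1 h at room temperature, read as absorbance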
# Method: as §6
# [33] = molecular target: T2, Human VSIG4-L-His; assay: SPR (Biacore T200), Fab P.E. 1:5 over immobilised antigen
# Method: Off-rate values of the mouse unique Fab clones were determined using surface plasmon resonance (SPR) in Biacore™ T200 equipment (GE Healthcare, Chicago, IL). […] The immobilization was performed in accordance with a method provided by Biacore and by using the NHS/EDC kit (GE Healthcare, Chicago, IL). […] Sixty μl of Fab P.E. samples, diluted 1:5 in HBS-EP+ assay buffer (0.1 M HEPES, 1.5 M NaCl, 0.03 M EDTA and 0.5% v/v Surfactant P20), were injected and passed through the flow cells at a flow rate of 30 μl/min. After binding of the samples to VSIG4 protein, the off-rate was monitored for a period of five minutes. The flow cell surface was regenerated by a double injection of 10 μl of 1 mM glycine at pH 1.5 in 1 M sodium chloride at 30 μl/min. Off-rate analysis was done using the BIAevaluation software (GE Healthcare, Chicago, IL) and using a 1:1 dissociation kinetic fit curve.
# [34] = molecular target: T6, Human VSIG4-L-Fc; assay: blocking ELISA, biotin-iC3b on coated hVSIG4-L-Fc
# Method: as §5
binder,measurement,setting,value
"14D12 mouse/human chimeric IgG4 (S228P) kappa (antibody, V domains shown) VH: QIQLVQSGPELKKPGETVKISCKASGYTFTNYGMNWVKQTPGKGLKWMGLINTYTGEPTYADDFKGRFAFSLETSASTAYLQINNLKNEDMATYFCARERIYGYLHYFDYWGQGTTLTVSS VL: DVVMTQTPASLAVSLGQRATISCKASQSVDYDGDSYMNWYQQKPGQPPKLLIYAASNLESGIPARFSGSGSGTDFTLNIHPVEEEDAATYYCQQSNEDPRTFGGGTKLEIKR",IC50,[1],0.8 nM
same,Percent Blocking C3b,[2],97%
same,Kd,[3],4.4 nM
same,Kd,[4],10.5 nM
same,Binding (200 nM) MFI,[5],36400 MFI
same,normalized maximum binding nm shift,[6],0.73 normalized
same,normalized maximum binding nm shift,[7],0.69 normalized
same,EC50,[8],2.8 nM
same,normalized maximum binding nm shift,[9],0.68 normalized
same,normalized maximum binding nm shift,[10],0.8 normalized
same,Percent Blocking iC3b,[11],98%
same,KD relative to parental chimera,[12],1 fold
same,KD relative to parental chimera,[13],1 fold
same,normalized maximum binding nm shift,[14],0.59 normalized
same,IC50,[15],0.6 nM
same,normalized maximum binding nm shift,[16],0.12 normalized
same,Binding (200 nM) Fold-Over-Parental,[17],112 fold
same,normalized maximum binding nm shift,[18],0.93 normalized
same,Kd,[19],28.7 nM
same,Kd,[20],16.1 nM
same,Kd,[21],21.5 nM
same,normalized maximum binding nm shift,[22],0.75 normalized
same,normalized maximum binding nm shift,[23],0.08 normalized
same,normalized maximum binding nm shift,[24],0.75 normalized
same,ELISA OD450,[25],3.43 OD450
same,ELISA OD450,[26],0.05 OD450
same,ELISA OD450,[27],4.52 OD450
same,ELISA OD450,[28],4.53 OD450
"15C03 mouse Fab (periplasmic extract) (Fab, V domains shown, mouse Fab with C-terminal His6-c-myc tag) VH: EVKLLESGPGLVKPSQSLSLTCTVTGYSITSDYAWNWIRQFPGNKLEWMGYISYSGSTRYNPSLKSRISITRDTSNNQFFLQLNSVTTEDTATYYCARSGYAAMDYWGQGTSVTVSS VL: ENVLTQSPAIMSASPGEKVTMTCRASSSVSSSYLHWYQQKSGASPKLWIYSTSNLASGVPARFSGSGSGTSYSLTISSVEAEDAATYYCQQYSGYPLTFGSGTKLEIK",Percent Blocking C3b,[29],42.7%
same,ELISA OD450,[30],4.05 OD450
same,ELISA OD450,[31],0.05 OD450
same,ELISA OD450,[32],4.2 OD450
same,koff,[33],0.0076 s⁻¹
"12A08 mouse Fab (periplasmic extract) (Fab, V domains shown, mouse Fab with C-terminal His6-c-myc tag) VH: EVMLVESGGGLVKPGGSLKLSCAASGFTFDDFYMYWVRQTPEKRLEWVASISDGGTYTYYPDSVKGRFTISRDNAKNTLYLQLSSLKSEDTAMYYCARGVDKYYYAMDYWGQGTSVTVSS VL: QILLTQSPAIMSASPGEKVTITCSASSSVSYMHWFQQKPGTSPKLWIYSTSNLASGVPARFSGSGSGTSYSLTISRMEAEDAATYYCQQRSSYPLTFGAGTKLELK",Percent Blocking C3b,[29],57.6%
same,ELISA OD450,[30],4.09 OD450
same,ELISA OD450,[31],4.27 OD450
same,ELISA OD450,[32],4.45 OD450
same,Percent Blocking iC3b,[34],53.4%
same,koff,[33],0.013 s⁻¹
"15A06 mouse Fab (periplasmic extract) (Fab, V domains shown, mouse Fab with C-terminal His6-c-myc tag) VH: QVQMKQSGPSLVRPSQTLSLTCSVTGDSITSGYWNWIRKFPGDKFEYLGYISYSGFTYYNPSLKSRVSITRDTSKNQYYLQLHSVTTEDTATYYCASSKYGSSLGFPYWGQGTLVTVSA VL: DVVMTQTPLSLPVSLGDQASISCRSSQSLVHSNGNTYLHWYLQKPGQSPKLLIYKVSNRFSGVPDRFSGSGSGTDFTLKISRVEAEDLGVYFCSQSTHVPFTFGSGTKLEIK",ELISA OD450,[30],0.06 OD450
same,ELISA OD450,[31],0.05 OD450
same,ELISA OD450,[32],4.42 OD450
same,Percent Blocking iC3b,[34],1.4%
same,koff,[33],0.0015 s⁻¹
"13H11 mouse Fab (periplasmic extract) (Fab, V domains shown, mouse Fab with C-terminal His6-c-myc tag) VH: QIQLVQSGPELKKPGETVKISCKASGYTFENFGMNWVKQAPGKGLKWMGWINTYTGEATYADDFKGRFAFSLETSASTAYLQINNLKNEDTATYFCARDGGFRHFDVWGAGTTVTVSS VL: ETTVTQSPASLSVATGEKVTIRCITSTDIDDDMNWYQQKPGEPPKLLISEGNTLRPGVPSRFSSSGYGTDFVFTIENMLSEDVADYYCLQSDNLPLTFGAGTKLELK",Percent Blocking C3b,[29],46.9%
same,ELISA OD450,[30],0.06 OD450
same,ELISA OD450,[31],4.34 OD450
same,ELISA OD450,[32],4.33 OD450
same,koff,[33],0.045 s⁻¹
